This is an account of results in patent publication US5849585.

The assay has as its target receptors for heregulin on rat Schwann cell lines (ESC and ASC).

Take “recombinant human heregulin-β1 177-244 fragment (from UniProt Q02297) (ligand)”: the half-maximal response, growth of rat ESC and ASC Schwann cell lines is 1 to 2 nM.
